Assay results taken from paper PMC10981675, “Structural basis for phage-mediated activation and repression of bacterial DSR2 anti-phage defense system” (Nature Communications, 2024).
Numbering of substitutions follows the chain as printed. Numbers in names are those of the source.

T1: DSR2–tube complex (Bacillus subtilis, UniProt P0DXN8)
T1 construct: gene BKP58_08510; full-length DSR2, N-terminal 6xHis, E. coli BL21 Star (DE3), codon-optimized; tube GST tag removed by HRV 3C; tetrameric DSR2; DSR2:tube 4:2 (wild type) or 4:4 (H171A with NAD+); with Tail tube protein (Bacillus phage SPR)
T1 sequence (P0DXN8 1-1005): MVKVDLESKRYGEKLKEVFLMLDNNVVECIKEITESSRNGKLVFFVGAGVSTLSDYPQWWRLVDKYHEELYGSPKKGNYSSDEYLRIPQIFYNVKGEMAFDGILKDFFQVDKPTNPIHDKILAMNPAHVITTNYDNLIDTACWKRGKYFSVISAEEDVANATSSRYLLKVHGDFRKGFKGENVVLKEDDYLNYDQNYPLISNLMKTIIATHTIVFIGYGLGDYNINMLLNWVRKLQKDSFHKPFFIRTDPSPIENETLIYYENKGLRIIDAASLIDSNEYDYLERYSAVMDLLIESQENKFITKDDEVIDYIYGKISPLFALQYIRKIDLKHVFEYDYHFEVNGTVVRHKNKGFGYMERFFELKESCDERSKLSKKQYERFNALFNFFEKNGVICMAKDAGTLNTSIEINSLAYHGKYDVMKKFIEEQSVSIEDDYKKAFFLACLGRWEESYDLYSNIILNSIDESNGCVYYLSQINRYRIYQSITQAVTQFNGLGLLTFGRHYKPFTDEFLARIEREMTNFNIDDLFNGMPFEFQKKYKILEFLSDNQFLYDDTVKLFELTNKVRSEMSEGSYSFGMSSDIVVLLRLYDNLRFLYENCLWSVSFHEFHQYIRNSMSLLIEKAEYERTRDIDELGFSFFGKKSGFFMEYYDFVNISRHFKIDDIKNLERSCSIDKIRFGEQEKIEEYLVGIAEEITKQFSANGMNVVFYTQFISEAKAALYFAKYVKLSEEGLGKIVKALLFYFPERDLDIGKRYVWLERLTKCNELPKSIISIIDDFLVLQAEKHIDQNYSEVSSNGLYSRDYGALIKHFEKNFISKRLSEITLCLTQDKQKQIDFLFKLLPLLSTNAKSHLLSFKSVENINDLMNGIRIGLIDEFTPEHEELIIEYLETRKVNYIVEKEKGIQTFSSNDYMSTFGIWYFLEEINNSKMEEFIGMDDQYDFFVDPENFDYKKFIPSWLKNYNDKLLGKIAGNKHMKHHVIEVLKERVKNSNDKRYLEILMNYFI
T1 sequence (A0AAE9G628 1-264 partner): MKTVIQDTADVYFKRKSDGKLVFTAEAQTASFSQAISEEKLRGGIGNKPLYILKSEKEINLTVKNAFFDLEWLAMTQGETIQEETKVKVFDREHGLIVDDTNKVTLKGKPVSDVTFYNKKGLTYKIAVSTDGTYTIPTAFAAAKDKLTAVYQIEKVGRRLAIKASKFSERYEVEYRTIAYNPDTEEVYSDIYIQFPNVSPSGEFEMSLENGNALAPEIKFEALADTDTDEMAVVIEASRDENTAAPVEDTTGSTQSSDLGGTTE

B1: tail tube protein of phage SPR, wild type (natural protein)
chain: T1 sequence (A0AAE9G628 1-264 partner)
notes: tail tube protein of Bacillus phage SPR; domains D1 and D2; GST removal with HRV 3C is told for the DSR2-tube complex; Alone it runs as monomeric and oligomeric species on SEC; Only D1 is seen in the maps; also called phage tail tube protein; source: E. coli BL21 Star (DE3); purified alone, or co-purified with DSR2 (Ni-NTA, glutathione resin, HRV 3C cleavage, HiTrap Q, Superdex 200); not shown: …
B2: defense-associated sirtuin 2 (DSR2), wild type (enzyme, Bacillus subtilis)
chain: T1 sequence (P0DXN8 1-1005)
notes: DSR2 (defense-associated sirtuin 2) of Bacillus subtilis, NCBI protein WP_029317421; codon-optimized synthetic gene in pRSFDuet MCS1; Tetramer (dimer of dimers) by cryo-EM and SEC; also called WT DSR2; wild-type DSR2; source: E. coli BL21 Star (DE3), purified (Ni-NTA, HiTrap Q, Superdex 200); also co-purified with tube or DSAD1; not shown: 6×His, N-terminal, kept
B3: DSR2 H171A (enzyme, Bacillus subtilis)
chain: T1 sequence (P0DXN8 1-1005) with H171A
notes: DSR2 of Bacillus subtilis, NCBI protein WP_029317421, with H171A; source: E. coli, co-expressed with the tail tube protein, co-purified

Tests used:
[1] = target: defense-associated sirtuin 2 (DSR2), wild type (Bacillus subtilis) (UniProt P0DXN8); assay: cryo-EM structure; co-purified complex incubated with 1 mM NAD+ before freezing; conditions: scale: DSAD1 per DSR2
[2] = target: defense-associated sirtuin 2 (DSR2), wild type (Bacillus subtilis) (UniProt P0DXN8); assay: cryo-EM structure; purified DSR2 (~25 mg/mL), co-purified DSR2-DSAD1 (~25 mg/mL) or co-purified DSR2-tube (~4 mg/mL, polylysine-treated grid); no NAD+ added; Titan Krios 300 kV; conditions: scale: DSAD1 per DSR2
DSR2–tube complex = target: T1, DSR2–tube complex; assay: fluorescence NADase assay (ex […] nm, em […] nm); assay type: biochemical; conditions: 400 nM protein, 50 μM εNAD+, 10 mM MES pH 6.5, 75 mM KCl, 2 mM MgCl2, 37 °C
DSR2 H171A = target: B3; assay: cryo-EM structure; co-purified complex incubated with 1 mM NAD+ before freezing; conditions: both partners purified
[3] = target: the molecule itself; assay: SEC; purified tail tube protein alone
[4] = target: B2; assay: cryo-EM structure; purified DSR2 (~25 mg/mL), co-purified DSR2-DSAD1 (~25 mg/mL) or co-purified DSR2-tube (~4 mg/mL, polylysine-treated grid); no NAD+ added; Titan Krios 300 kV; conditions: both partners purified
[5] = target: the molecule itself; assay: SEC; purified DSR2 alone; Superdex 200 Increase 10/300 GL, 20 mM Tris-HCl pH 7.5, 150 mM NaCl, 1 mM DTT
[6] = target: the molecule itself; assay: cryo-EM structure; co-purified complex incubated with 1 mM NAD+ before freezing

Work on “DSR anti-defense 1 (DSAD1) (natural protein)” yielded a stoichiometry N [1] of 0.5 and a stoichiometry N [2] of 0.5.

In the case of `NC(=O)c1ccc[n+]([C@@H]2O[C@H](COP(=O)(O)OP(=O)(O)OC[C@H]3O[C@@H](n4cnc5c4ncn4ccnc54)[C@H](O)[C@@H]3O)[C@@H](O)[C@H]2O)c1` [εNAD^+], the “fluorescence NADase assay (ex 300 nm, em 410 nm)” value (DSR2–tube complex) is reported as “The purified DSR2–tube complex exhibited pronounced NADase activity”.

For B1, the “stoichiometry N” value (DSR2 H171A) was 1 tube per DSR2 (printed as DSR2:tube 4:4), the binding result [3] was “binds” and the “stoichiometry N” value [4] was 0.5 tube per DSR2 (printed as DSR2:tube 4:2).

With B2 the “stoichiometry N” value [5] was 4.

For B3, the “stoichiometry N” value [6] was 4.
